From patent publication US20240391977A1

Molecular target: human TPOR (thrombopoietin receptor, c-Mpl) expressed on BaF3/c-Mpl cells (human) (UniProt P40238)
Assay: cell-based or functional assay

Substance: Romiplostim (Nplate®) (Fc fusion)
- EC50 (ng/ml), growth of BaF3/c-Mpl cells by CCK-8 assay; Nplate®: 8.78 ng/mL
